In the DeepSol protein solubility set:

Assay: soluble on expression in E. coli; label from the status in PepcDB or PDB records

Row | Sequence | soluble on expression in E. coli
1 | MGSDKIHHHHHHMTPSIPPEVAQHLGYYVYLYVDPRTEQVFYVGKGQGQRVLSHLSAEGESRKAQILAELRQAQLSPRLDILAHGLPDEATAYRIEAAAIDLLGLDSLSNLVRGWQSVRSGRRSLEELVTYYAAPPAVITDPVMLIRSNRLYWHGMPAQELYEATRGVWKVAKWRQQEVKYALAVFEGVVREVYTIESWHPAGQTPYQTRLAEAVNDPQRWEFVGHVAPEEVRNRYLYHSVTASFARNAQNPIAYPPVT | not soluble
2 | GMREEKIREALNAHWQASAAGDFDAEHDIYDDDAICDYPQSGERILGRMNLQALRSHHPGKPAGFEVRRIQGEGNLWITEYSISYNGRPAYTVSIMEFRNGKVVHETQYFSDPFEAPGWRSQWVQQIG | soluble
3 | MKILVAVKQTAALEEDFEIREDGMDVDEDFMMYDLNEWDDFSLEEAMKIKESSDTDVEVVVVSVGPDRVDESLRKCLAKGADRAVRVWDDAAEGSDAIVVGRILTEVIKKEAPDMVFAGVQSSDQAYASTGISVASYLNWPHAAVVADLQYKPGDNKAVIRRELEGGMLQEVEINCPAVLTIQLGINKPRYASLRGIKQAATKPIEEVSLADIGLSANDVGAAQSMSRVRRMYIPEKGRATMIEGTISEQAAKIIQIINEFKGA | soluble
4 | MSLDIVSHQKIRRFEAGTFQEIESSVATEYPLTIYVNDQELVTIVCTPEYLEDLVVGFLTSEGIVRGPRDINSVDIIEATGHAKVSANFVNKFNAKYRGKRYITSCCGKSRENFYFQSDASLVNVKQNGNLQLTTDMIFRLMEKFEQNSATFHQTGGVHNAALCSSAEIIYSRMDIGRHNALDKIYGRALQDGTSTEDKAIIFSGRISSEILVKTAKLGCGIILSRSAPTELAINMAEELNITTVGFIRGDRLNVYSGFERITEGHHHHHH | soluble
5 | MTDEFKKSTANLKKAVPLMIKNHVAATPANYALWYTYVDKTIPELNFEMDEVLEHYGICPPAANKQLYNNYVASRAETSLEDLKTNVEVLLHEVSSSMSDTLSDTSSFSAMVDKSFNKLEKVEDNSLSIEEVMVVIRQLVAESHEIRHSTKFLNRQLTNASEEISR | not soluble
6 | TTFENKKVLVLGLARSGEAAARLLAKLGAIVTVNDGKPFDENPTAQSLLEEGIKVVCGSHPLELLDEDFCYMIKNPGIPYNNPMVKKALEKQIPVL | not soluble
7 | MAHHHHHHMDDRDAELDIDEDGIFTCEEVNALTSAMWKAEGLTRVPRSRRHHRQAPPQQRTSAAAVDSLQPGPLAASTTTPGGGSVTDVTLQPLLNTTGEDGGHRSLGGDIRGLPSSFSNAPLFASATTTAAGLSSTSSPQPTSQALHHHHNDVDRQLGGNSNTSGRRMAGGGGSVGGEGSRSSSSVYEVLIQRVLAMDTASDIWSLGVLLYGMCADTADAQQQEEQQQHQASASTTTPTLNPPHATAAGSSPVRAHEGVAGTLPPAMPTCTCASRLAQRAFAALLGDLYDLAVTGVPSGDRGNNGWSCDGVDVEQLDEAADDHLRWPRSCALEEEVMQAIGEAGYTHVFASVLASMLSPVAARRPSAGDIVNQLRLVTTGAPATLASNIMRGGGGGLADADDEYSVARQSPPPRIQHSGGASDATSSVMLHEQTACMALRQR | not soluble
8 | MESNNNEKKKVARQSSSFRLRSPSLNALRLQRIFDLFDKNGDGFITVEELSQALTRLGLNADLSDLKSTVESYIQPGNTGLNFDDFSSLHKTLDDSFFGGACGGGENEDDPSSAAENESDLAEAFKVFDENGDGFISARELQTVLKKLGLPEGGEMERVEKMIVSVDRNQDGRVDFFEFKNMMRTVVIPSS | soluble
9 | MENHDLVIVGGGISGLQAAISAKKSGVQDIVLIEAEDSLGGILNQCIYTGFGMEDFKEELTGTEYVQRFIDEFLELNIEYKLNTTVIKISKNKVITAVSPNEGIIEIKACSIIFAAGAVEKPQKSIRVLTKDLSGIYSALTVGRFINIHGYMPGKSIVILGANKIGNALANRIFIEGGKVKAVIDSEVGFDERNEIIEFLAEINIPFLYNYNIVKIKGSERIEGIYISDENGEKFISCDTLILALKLNPNDKILREANIKILNKERNEINTNVPGVFIVGNALYIHESNEGSPLENRKAGEMSAEYIRATLLEHHHHHH | not soluble
10 | MEIQFLGTGAGQPAKARNVSSLVLKLLDELNEIWMFDCGEGTQRQILETTIKPRKIRKIFITHLHGDHVFGLPGFLSSRAFQANDEQTDVDIYGPVGIKHLVMASIRTSGAHLPYHIHFHEFDAKHLGKILETDKFMVYAEKLDHTIFCVGYRVVQKDLEGTLDAEKLKAAGLPFGPLFGRVKNGQDVVLEDGTTIIAKDYISAPKKGKVITILGDTRKTDASIRLALGADVLVHESTYSKGDENLARRHGHSTNTEAARVAKAASVKKLLLNHISARFLSHDISRMRDDAQEIFTDVHIVRDLEEVKLLEHHHHHH | not soluble
11 | MVEERIINLSHEIKNFVYPNDPEFIVKTKKNGKYSVSELNMGVHTGTHIDYPMHVGLTNEKFENVFGKGYCVSLENMNDFFKNAPKNLEILLIKTDFSKYWEDPEYFEKECDIENHVEKLISMNLKAVGIDCCSIGNFSVHEKLLSSKIKIIENMKNLEILENKTFKFFGFPLNIEKIDGSPINAVAFLLEHHHHHH | not soluble
12 | MSLGNNLKKKNGADSLYYTTRTFATTKEVIQANKFVNSEKLNEIAKKTDCTYLKSPAGIFTQATLPINKIYEELSHDTINAVKLTFNSYNQPDNGKFSMKAPTYVLLLREKERQSFFEENKLTDNITSYLAVHNAIISNKPTTNQYVFTNLTRLINACVNEKQEAKKKAGDSWNEAAWEAANPDWNKVVLIPVLVQYDSSSNKNMISIQHDLQPGYVKLEGGPDGTKLKLEVTYTNFNGKEGHHHHHH | soluble
13 | MAHHHHHHMSLHKEICNYIVKFSSKPVQRLGYEPPKKKRSILRELYHKLIFPYYFKFIRAPYERWQFCATTKFLREHGLMYDDMYSDKDPVIERAISLLPKDIQTRRYRRMLRGTHINYLRLFLHPSEQNYDPYIPYLAPYIEEAKFQLQEEEELLGYHPYDRRLYSGGTTGFGDLEPGLHFLVSIPNLYGAAIPHSKKK | soluble
14 | MRIALIFLVLLVSFASSCKNFDKYMNMFCRYGLEQSPCTVEDYSTYKSACCAMKNNCSYKEFPKDDVCCFTVECLKRCFPEKLLKNDKVY | not soluble
15 | REVADTAYDRTLLASARAIADGLYEKDGTLRADVPYVALDTFAYDSAGRIFYQVNDIHGRMISGYENLPAAPADTLRTDDYPALAKFYDGVYQGVDVRVVSLLQPVSEPSMSGMAEIRVAETEGARERMARS | not soluble
16 | MSLNDSRLLPVGSSPLEVAAARACAEIERTPVNIRALWNPDTCPENLLPWLAWAFSVDRWDENWPEGTKRAVIRDAYFIHCHKGTIGAIRRVVEPLGYVINVTEWWESSDPPGTFRLDIGVLESGITEEMYFEMERLIADAKPASRHLTGLNIVQDIPGYLYTGGVSCDGDIITVYPGEGHHHHHH | not soluble
17 | EIEMTQSPSSLSASVGDRVTISCRASQRINTYLNWYQHKPGKAPKLLIYAASSLQSGVPSRFSGSGYGTDFTLTISSLQPEDFASYYCQESLSASYTFGQGTKVEIKRTVAAPSVFIFPPSDEQLKSGTASVVCLLNNFYPREAKVQWKVDNALQSGNSQESVTEQDSKDSTYSLSSTLTLSKADYEKHKVYACEVTHQGLSSPVTKSFNRGEC | soluble
18 | MGSDKIHHHHHHAQDKPQEEGFVFTTVKENPITSIKNQNRSSTCWSFSSLGFLESELLRTGKGEYDLSEMFVVHHTMVDRAVNYVRYHGDSSFSPGGSFYDIMFCMKNYGLVPQDAMPGIMYGDSLPVHNELDATAGAYVNAIAKGNLKKLTPVWKKGLCAIYDTYLGQCPEKFTYKGKEYTPMTFAQSLGLNPDDYVSLTSYTHHPFYSQFAIEIQDNWRNGLSYNLPLDEFMAVMDNAVKNGYTFAWGSDVSEEGFTRDGIAVVPDAAKGAELTGSDMARWTGMTAADKRKELTSKPLPEMKITQEMRQTAFDNWETTDDHGMIIYGIAKDQNGKEYFMVKNSWGTNNKYKGTWYASKAFVAYKTMNILVHKDALPKDIAKKLGIK | not soluble
19 | MKNEDGIINILLMGTDARPNEDSSRSDAMMILTIDNKHNDIKLTSLARDSYVDIPGHGKQKLTHAYAYGQADLLIQTIEENFNIDIQNYACVNFESFMYIIDAIGGVEVTVEKGEIRELNKFIPETYKWNKSDDKGSIQYIRNSGKQTLNGYQALSFARIRHNDTAFARDGRQRQIIQAIIKKTETLPVTKYPGLLDAVLPYVKTNMKPNAILSLGAQVLKMGDLNIKQFEFPIDDEIHSTGGIYGKAGWVLRFDPDTLDILHDFIFNDIEFKQLEHHHHHH | soluble
20 | MRSDVIKKGLERVPHRSLLKALGITDDEMRRPFIGIVSSWNEIIPGHVHLDKVVEAVKAGVRMAGGVPFVFPTIGICDGIAMDHRGMKFSLPSRELIADSIEIVASGFPFDGLVFVPNCDKITPGMMMAMGRLNIPSVLISGGPMLAGRYNGRDIDLITVFEAVGGYKVGKVDEETLKAIEDLACPGAGSCAGLFTANTMNSLAEALGIAPRGNGTVPAVHAKRLRMAKEAGMLVVELVKRDVKPRDIVTLDSFMNAVMVDLATGGSTNTVLHLKAIAESFGIDFDIKLFDELSRKIPHICNISPVGPYHIQDLDDAGGIYAVMKRLQENGLLKEDVMTIYLRKIGDLVREAKILNEDVIRPFDNPYHKEGGLGILFGNLAPEGAVAKLSGVPEKMMHHVGPAVVFEDGEEATKAILSGKIKKGDVVVIRYEGPKGGPGMREMLSPTSAIVGMGLAEDVALITDGRFSGGSHGAVIGHVSPEAAEGGPIGIVKDGDLIEIDFEKRTLNLLISDEEFERRMKEFTPLVKEVDSDYLRRYAFFVQSASKGAIFRKPAAALEHHHHHH | soluble
21 | MGSDKIHHHHHHMTAATSVRAQAREEDLSVKEILDSRWFQPEMFKTLDYVKGFVGAKVIFQMLKLGVFDDLLAGKTLEEIASGRSLDPYLLRTVFEYLSVEGLLVKEGRGGGASFRLSDYGSRIKHYEGWFNILIGGYDNIFSNIGAMLEEGIGGYKRDGKWVGVGSCQISKYDTIPITKAFIESVKPDAKQIVDFGCGNALYLCTLAKELGDIKAVGIEPDTSAYEAGLKKVAEMGLQDQVRLVNVDALDYEIDEQPDFILFGFVLQEIIAQIGRPAFIEYLRKLGRKFADSYLMVMEVDYDIDNREVMHSPMGRGYYNPYFLLHPFTNQLLLPKREWDEIFAQAGYDVVRDEVTSPKADPSGFGICYVLKYRGAHC | not soluble
22 | RQTRIMDSAQYAEFCESRQLSFSKKASKFRDWLDCSSMEIKPNVVAMEILAYLAYETVAQLVDLALLVRQDMVTKAGDPFSHAISATFIQYHNSAESTAACGVEAHSDAIQPCHIREAIRRYSHRIGPLSPFTNAYRRNGMAFLAC | soluble
23 | MSLKLIKGLNLLRPCSDTPFLENAFVVIDGDEFLSVGTTEPEGEFEEVLDCGGKFALPGLINAHHHLYSALAVGMPPPAKTPLNFTQILEEVWWKLDLALDHDATQASFESGLIDSLKAGTTTVIDHHCSPSFIEGSLSLLGDTGKKLGIATGLAFEVTDRNGQELFERSLQENLDAAEKHSQDQELAALLGLHASFTLSEESLKKVAEVHSKRSNWGIHTHLSEDRADEEDARNRGHASVVERLDHFGLINQSAMLIHGVHSLESDAELIQKHKAHLVHNPTSNANNRIGMLSNQAAERMKPGLGTDGMQSNMIREAKEGMLIRSSHMSAGDAGVDYQAILFDHNPRIASAVFGRSIGRVEPGYRADLAIYDYHPRTEVHSDNVFGHVFFGLGEPCDVMSGGLMRVQNHLLQGNDEQAAKQEAAEQSRKLWQKMQEGHHHHHH | soluble
24 | YKDSPKVLGQTYSSLLIDFTEGFHPNDLGIIVETIKEGGIIIAFSPPIEQWENLKSRWHEELVSEPYTVEDVTGRFFARFMRRTLQAEGIIIFD | not soluble
